Measured values as given in patent US9765332B2, “Oligonucleotides and methods for inhibiting or reducing bacterial biofilms” (INSERM (INSTITUT NATIONAL DE LA SANTE ET DE LA RECHERCHE …).
Entries after “also recorded” stand apart in the source; their conditions may differ.

Key:
[1] = tested on: E. coli; assay: E. coli biofilm formation in the presence of PNAs; format: cell-based; details: 20 μM of PNAs
Procedure: The inventors used peptide nucleic acids (PNAs) that hybridize to the CsgD mRNA sequence ranging from nucleic acid at position 128 to nucleic acid at position 151 in SEQ ID NO: 9. In the presence of 20 μM of PNAs corresponding to RydC 1-2tot sequence (SEQ ID NO: 10), E. coli biofilm formation was reduced about 50%.

[2] = tested on: E. coli; assay: E. coli growth in the presence of PNAs; format: cell-based
[3] = tested on: csgD mRNA215; assay: Ribosome toeprint assays; format: biochemical, Escherichia coli; details: RydC without Hfq (elevated amounts); Hfq without RydC (low amounts)
Procedure: (§1) After denaturation followed by renaturation at room temperature, annealing mixes containing 0.2 pmol csgD mRNA and 1 pmol of labelled primer were incubated for 15 min with or without various concentrations of RydC or Hfq. fMet-tRNA^fMet was then added for 5 min. Reverse transcription was started by adding 2 μL of AMV RT (NE Biolabs) and dNTPs for 15 min, then stopped by adding 10 μL of Buffer II (Ambion). The cDNAs and sequencing reactions were run on polyacrylamide gels, and signals detected using a PhosphorImager. Gel retardation assays are performed as previously described (4). 0.5 pmol of labelled RydC were incubated for 10 min at 37° C. with various concentrations (0-500 pmols) of unlabelled csgD mRNA215, csgD mRNAΔ5′UTR, or csgD mRNA100 in 1×TMN buffer (20 mM Tris-acetate pH 7.6, 100 mM sodium acetate, and 5 mM magnesium acetate). Samples were loaded onto a native 5% acrylamide gel and separated with 0.5×TBE at 4° C. Gels are dried and visualized (PhosphorImager).

[4] = tested on: csgD mRNA; assay: In vitro translation assays (PURESYSTEM); format: biochemical, Escherichia coli; details: csgD mRNA503; for effect of adding Hfq on the translation regulation by the RydC mutant: 2-fold molar excess of Hfq
Procedure: In vitro translation of CsgD mRNA503 (2.5 pmols) using [^35S]-methionine was carried out with a PURESYSTEM (Cosmo Bio) following the manufacturer's instructions and as described previously (13). After RNA denaturation for 2 min at 85° C., chilling 2 min on ice, then renaturation for 5 min at 37° C. in TMN 1× buffer, a pre-complex between RydC and 10 pmol of Hfq was performed during 10 minutes at 37° C. To form the complex with the csgD mRNA, we again incubated for 10 min at 37° C. then translation assays were initiated by adding [^35S]-methionine and the PURESYSTEM classic II. Each reaction was denatured in a 1× Laemmli buffer at 95° C. for 5 min, loaded onto a 16% Tris-glycine gel, and visualized on a PhosphorImager.

[5] = tested on: csgD mRNA; assay: Native gel retardation assays; format: binding, Escherichia coli
Description: To generate the various csgD mRNA fragments as well as the sRNA's RydC, DNA templates containing a T7 promoter sequence were generated by PCR using the appropriate primers (Table S2) followed by in vitro transcription using a MEGAscript kit (Ambion) per the manufacturer's protocol. Transcription products were then electrophoresed onto a 6% PAGE containing 8M urea, excised from the gel, then […]. When necessary, purified RNA was dephosphorylated using CIP (New England Biolabs), 5′end-labelled with ATP γ-^32P (PerkinElmer) and T4 polynucleotide kinase (NE Biolabs), then treated with gel purification, passive elution, and ethanol precipitation.
as §1

[6] = tested on: Escherichia coli; assay: Curli formation on Congo red plates; format: cell-based; details: stimulated RydC expression, 48 hours at 28° C.
[7] = tested on: CsgD protein; assay: Western blot with anti-CsgD antibodies during curli formation; format: cell-based, Escherichia coli; details: induction of RydC expression; all times during curli synthesis
Description: (§2) Membranes were blocked in TBS containing 5% milk.

[8] = tested on: Escherichia coli; assay: Microtiter dish biofilm assay (crystal violet), RydC expression from pUC18-rydC; format: cell-based; details: increased RydC expression (pUC18-rydC) vs isogenic strain; 48 hours incubation at 28° C.
[9] = tested on: Salmonella enterica (bongori); assay: Curli formation on Congo red plates; format: cell-based; details: stimulated RydC expression, 48 hours at 28° C.
[10] = tested on: Salmonella enterica (bongori); assay: Microtiter dish biofilm assay (crystal violet), RydC expression from pUC18-rydC; format: cell-based; details: increased RydC expression (pUC18-rydC) vs isogenic strain; 48 hours incubation at 28° C.
[11] = tested on: csgBA and csgA mRNA; assay: Northern blot of csgA and csgBA mRNAs during curli formation; format: cell-based, Escherichia coli; details: high levels of RydC; after 10 h incubation
[12] = tested on: CsgB protein; assay: Western blot with anti-CsgB antibodies during curli formation; format: cell-based, Escherichia coli; details: promoted RydC expression; after 48 h
Description: as §2

[13] = tested on: CsgA protein; details: stimulated RydC expression; YESCA plates, 0-48 hours
Procedure: E. coli K-12 MG1655Z1, S. sonnei and S. enterica strains and their derivatives were used (Table S1). RydC gene disruption and overexpression in E. coli cells were done as previously described (4). The biofilm assays were performed in 96-well polystyrene plates, as previously described (18). E. coli, S. enterica, and S. sonnei cells were grown aerobically under static conditions at 28° C. in half-diluted M9 media supplemented with a 0.4% glucose carbon source. After 48 h growth, planktonic cells were discarded and kept for growth evaluation at OD600 nm. Each well was washed twice with PBS and put into a ‘swimming pool’, pooled with the initial supernatant. Biofilm was developed in plates then dyed with crystal violet for 15 min at room temperature. The biofilm was recovered through application of an 80% absolute ethanol and 20% acetone solution and by pipetting up and down. After 2 further washes in ‘ethanol/acetone’, the number of surface-attached bacteria was estimated from the optical density at 590 nm and divided by the evaluation of growth at 600 nm. Curli expression was monitored for 48 h at 28° C. on Congo red plates (1% Casamino acids, 0.1% yeast extract, 20 μg ml^−1 Congo red and 10 μg ml^−1 Coomassie Brilliant Blue G). […]

[14] = tested on: csgD mRNA; assay: Northern blot of csgD mRNA during curli formation; format: cell-based, Escherichia coli; details: induced RydC expression; throughout curli synthesis
[15] = target: Hfq (Escherichia coli, UniProt P0A6X3 P0A6X3:2-102); assay: EMSA; Hfq binds csgD mRNA215 in absence of RydC; no Kd given; details: tags: His tag implied by Ni2+ column purification, expressed from pTE607 in BL21(DE3); chain copies: 6; nine helices H1-H9
Sequence of Hfq (P0A6X3 2-102, one chain of several): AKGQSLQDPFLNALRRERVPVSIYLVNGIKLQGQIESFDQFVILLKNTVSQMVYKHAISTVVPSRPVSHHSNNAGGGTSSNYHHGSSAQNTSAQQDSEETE

AACATGATGAAACCCCGC (all peptide nucleic acid (PNA)) [RydC 1-2tot]
reduction of E. coli biofilm formation [1]: about 50% | effect on bacterial growth [2]: reducing E. coli growth

Hfq: purified E. coli Hfq RNA-binding protein (RNA chaperone)
ribosome loading / translation initiation on csgD mRNA215 (toeprint) [3]: prevent csgD mRNA translation initiation | CsgD translation remaining (down to) ([4]; relative to translation without RydC and Hfq): 40% | interaction of Hfq with csgD mRNA215 ([5]; absence of RydC): interacts

B1: Escherichia coli RydC H1 (nucleic acid)
chain: CUUCCGAUGUAGACCCGUAUUCUUCGCCUGUACCUGCCCAGGGUUUUAGUACAGGCGUUUUCUU
modifications: chemistry not given here
effect on CsgD translation ([4]; absence of Hfq): increased efficacy and translation blockage

B2: Escherichia coli RydC H3 (nucleic acid)
chain: CUUCCGAUGUACUGGGCAAUUCUUCGCCUGUACCUGCCCAGGGUUUUAGUACAGGCGUUUUCUU
modifications: chemistry not given here
activity for reducing CsgD translation relative to RydCH1 [4]: ten-fold | activity in reducing csgD mRNA translation relative to RydC [4]: only half as active as RydC | effect of adding Hfq on the translation regulation by the RydC mutant [4]: no effect

B3: Escherichia coli RydC small RNA (nucleic acid, listed as Escherichia coli)
chain: CUUCCGAUGUAGACCCGUAUUCUUCGCCUGUACCACGGGUCGGUUUUAGUACAGGCGUUUUCU
modifications: expressed or natural sequence
notes: trans-encoded 64 nt sRNA of enteric bacteria folding as a pseudoknot; expressed from pUC18-rydC or transcribed in vitro
curli formation [6]: lowered curli formation | ribosome loading / translation initiation on csgD mRNA215 (toeprint) [3]: reduced ribosome loading onto the csgD mRNA in a concentration-dependent manner | reduction of CsgD protein compared to isogenic strain [7]: up to five-fold | reduction of biofilm formation [8]: about one-third | curli formation [9]: lowered curli formation | reduction of biofilm formation [10]: one-half | reduction of CsgD translation ([4]; without Hfq): 20% | decrease of steady state levels of csgBA and csgA mRNA transcripts [11]: half | reduction of CsgB nucleator protein compared to isogenic strain [12]: about two-fold | reduction of the quantity of CsgA structural protein compared to wt [13]: up to 2.5 times | complex formation with csgD mRNA100 ([5]; 31 nts of 5′UTR including TIS plus 69 nts coding sequence): duplex was detected; also recorded: lower than that with mRNA215 | ternary complex formation RydC-Hfq-csgD mRNA215 ([5]; Hfq 1:1 molar ratio to RydC, one-to-one molar ratio with csgD mRNA215): nearly all of the RydC is in the complex | molar excess of csgD mRNA215 versus RydC needed for about half of RydC in complex ([5]; absence of Hfq): 1000 -fold molar excess | complex formation with csgD mRNA115 ([5]; first 115 nts of the csgD mRNA 5′-end, up to 250-fold excess): unable to interact; also recorded: did not interact | complex formation with csgD mRNAΔ5′UTR ([5]; mRNA lacking the 5′-UTR, starting at G+3): does not interact | complex formation with csgD mRNA215 ([5]; no Hfq): duplex was detected | csgD mRNA steady state levels compared to isogenic strain [14]: half

B4: csgD mRNA215 (ssRNA)
RNA: GAUGUAAUCCAUUAGUUUUAUAUUUUACCCAUUUAGGGCUGAUUUAUUACUACACACAGCAGUGCAACAUCUGUCAGUACUUCUGGUGCUUCUAUUUUAGAGGCAGCUGUCAGGUGUGCGAUCAAUAAAAAAAGCGGGGUUUCAUCAUGUUUAAUGAAGUCCAUAGUAUUCAUGGUCAUACAUUAUUGUUGAUCACUAAAUCUUCUUUGCAGGCG
binding result [15]: binds

B5: Escherichia coli RydC H2 (nucleic acid)
chain: CUUCCGAUGUACUGGGCAAUUCUUCGCCUGUACCACGGGUCGGUUUUAGUACAGGCGUUUUCUU
modifications: chemistry not given here
effect of adding Hfq on the translation regulation by the RydC mutant [4]: not beneficial
